Test results as given in the supplement of paper PMC7125110.
± gives the standard error. For some assays here: Fewer inactive variants are shown than the library holds.

B1: glmS ribozyme (parent)
chain: AUAAAAGCGCCAGAACUACAGAAAUGUAGUUGACGAGGAGGAGGUUUAUCGAAUUUUCGGCGGAUGCCUCCAAA

Legend:
Conditions in all cases: with glucosamine-6-phosphate
glucosamine-6-phosphate [1] = variants of: B1; assay: kcat; higher = faster cleavage; RNA array
How it was run: (§1)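 In situ transcription by E. coli RNA polymerase produced barcoded ribozyme variants on sequenced MiSeq chips, and a hybridised Cy3 probe tracked them at 37 °C. Glucosamine-6-phosphate was flowed in at 40 μM to 10 mM in HEPES/KCl/Mg(OAc)2 buffer. kcat and KM were taken from weighted Michaelis–Menten fits of kobs values from exponential decay fits.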

glucosamine-6-phosphate [2] = variants of: B1; assay: self-cleavage kobs at 160 uM GlcN6P; higher = faster cleavage; RNA array
How it was run: as §1

glucosamine-6-phosphate [3] = variants of: B1; assay: self-cleavage kobs at 640 uM GlcN6P; higher = faster cleavage; RNA array
How it was run: as §1

glucosamine-6-phosphate [4] = variants of: B1; assay: self-cleavage kobs at 2500 uM GlcN6P; higher = faster cleavage; RNA array
How it was run: as §1

glucosamine-6-phosphate [5] = variants of: B1; assay: self-cleavage kobs at 10000 uM GlcN6P; higher = faster cleavage; RNA array
How it was run: as §1

glucosamine-6-phosphate [6] = variants of: B1; assay: KM; higher = weaker cofactor use; RNA array
How it was run: as §1

glucosamine-6-phosphate [7] = variants of: B1; assay: self-cleavage kobs at 40 uM GlcN6P; higher = faster cleavage; RNA array
How it was run: as §1

Row | Variant | kcat (glucosamine-6-phosphate [1]) [s⁻¹] | self-cleavage kobs at 160 uM GlcN6P (glucosamine-6-phosphate [2]) [s⁻¹] | self-cleavage kobs at 640 uM GlcN6P (glucosamine-6-phosphate [3]) [s⁻¹] | self-cleavage kobs at 2500 uM GlcN6P (glucosamine-6-phosphate [4]) [s⁻¹] | self-cleavage kobs at 10000 uM GlcN6P (glucosamine-6-phosphate [5]) [s⁻¹] | KM (glucosamine-6-phosphate [6]) [µM] | self-cleavage kobs at 40 uM GlcN6P (glucosamine-6-phosphate [7]) [s⁻¹]
1 | G29U U54A C67G | 8.75e-05 ± 2.6e-05 | 5.68e-05 ± 1.4e-05 | 8.37e-05 ± 1.3e-05 | 0.000134 ± 2.5e-05 | 5.17e-05 ± 2e-05 | – | –
2 | A20G C58U C70G | 7.18e-05 ± 2.9e-05 | – | 0.000104 ± 2.6e-05 | 7.21e-05 ± 1.9e-05 | – | – | –
3 | G29A U56C | 0.000719 ± 0.00026 | 3.68e-05 ± 1.1e-05 | 0.000156 ± 2.2e-05 | 0.000226 ± 3.3e-05 | 0.000619 ± 6.7e-05 | – | –
4 | C16U C61U | 1.75e-05 ± 1.4e-06 | – | – | – | – | – | –
5 | G29A G60C | < 1e-05 | – | < 1e-05 | – | < 1e-05 | – | –
6 | U30C A64G | 0.000351 ± 3.3e-05 | 4.88e-05 ± 1.1e-05 | 0.000122 ± 1.4e-05 | 0.000267 ± 3e-05 | 0.000293 ± 4.9e-05 | 1100 ± 200 | –
7 | G29A U45A | 0.0109 ± 0.003 | 0.000411 ± 0.00014 | 0.00159 ± 0.00032 | 0.00447 ± 0.0012 | 0.00857 ± 0.0012 | 3200 ± 1300 | 0.000219 ± 4.2e-05
8 | U30A G59A | 3.04e-05 ± 2.1e-06 | – | – | – | 2.5e-05 ± 1.2e-05 | 2080 ± 490 | < 1e-05
9 | G29C A33U | 2.55e-05 ± 6.2e-07 | – | – | – | 2.33e-05 ± 1.2e-05 | 979 ± 140 | –
10 | G29C G40C | 9.96e-05 ± 4.4e-06 | – | 3.65e-05 ± 1.5e-05 | 7.4e-05 ± 1.6e-05 | 8.84e-05 ± 1.8e-05 | 1020 ± 150 | –
11 | U30A A53C | 0.00232 ± 0.00044 | 0.000107 ± 2.5e-05 | 0.000357 ± 6.9e-05 | 0.000882 ± 0.00014 | 0.00196 ± 0.00049 | 3590 ± 950 | –
12 | G29U U46A | 0.000356 ± 1.1e-05 | – | 7.15e-05 ± 1.2e-05 | 0.000184 ± 3.7e-05 | 0.000282 ± 3.6e-05 | 2530 ± 150 | –
13 | G29C A52G | 0.000125 ± 7.9e-06 | – | 2.88e-05 ± 7.9e-06 | 7.18e-05 ± 1e-05 | 0.000104 ± 1e-05 | 1940 ± 350 | –
14 | G29A C70G | 6.2e-05 ± 1.1e-05 | 5.22e-05 ± 1.7e-05 | 5.96e-05 ± 1.1e-05 | 7.74e-05 ± 8.4e-06 | 4.28e-05 ± 8.6e-06 | – | –
15 | G29A C67U | 0.000866 ± 0.00021 | 0.000247 ± 5.1e-05 | 0.00034 ± 5.8e-05 | 0.00056 ± 0.00012 | 0.00104 ± 0.00017 | 742 ± 320 | 4.43e-05 ± 8.6e-06
16 | G29A U65A | 0.000167 ± 6.7e-05 | – | 0.000132 ± 3e-05 | 0.000122 ± 2.8e-05 | – | – | –
17 | G29C G37A | 0.000262 ± 4.4e-05 | – | – | 7.11e-05 ± 1.8e-05 | 0.000165 ± 3.8e-05 | 6200 ± 1700 | –

Row | Variant | kcat (glucosamine-6-phosphate [1]) [s⁻¹] | self-cleavage kobs at 160 uM GlcN6P (glucosamine-6-phosphate [2]) [s⁻¹] | self-cleavage kobs at 640 uM GlcN6P (glucosamine-6-phosphate [3]) [s⁻¹] | self-cleavage kobs at 2500 uM GlcN6P (glucosamine-6-phosphate [4]) [s⁻¹] | self-cleavage kobs at 10000 uM GlcN6P (glucosamine-6-phosphate [5]) [s⁻¹] | KM (glucosamine-6-phosphate [6]) [µM] | self-cleavage kobs at 40 uM GlcN6P (glucosamine-6-phosphate [7]) [s⁻¹]
18 | G29C U47A | 0.00173 ± 0.00071 | 7.89e-05 ± 1.6e-05 | 0.000293 ± 3.8e-05 | 0.000579 ± 8.4e-05 | 0.00158 ± 0.0002 | – | 4.95e-05 ± 1.1e-05
19 | G29C U47G | 0.000341 ± 9.9e-05 | – | 7.76e-05 ± 1.8e-05 | 0.000393 ± 8.4e-05 | 0.000269 ± 4.6e-05 | – | –
20 | U30C A52G | 1.33e-05 ± 2.9e-06 | – | – | – | – | – | –
21 | A23C C70A | 0.000172 ± 3.1e-05 | – | – | 0.000302 ± 0.0001 | 0.000156 ± 3.2e-05 | 139 ± 68 | 3.76e-05 ± 1.2e-05
22 | U30A U55C G66C | 8.18e-05 ± 2.7e-05 | – | – | 0.000101 ± 2e-05 | 6.89e-05 ± 1.1e-05 | – | –
23 | G29U U30G | 0.00393 ± 0.0013 | 0.000286 ± 5.6e-05 | 0.00131 ± 0.00023 | 0.00182 ± 0.00035 | 0.00493 ± 0.001 | 1780 ± 820 | 9.59e-05 ± 1.7e-05
24 | G29U U30A | 0.000337 ± 3.2e-05 | – | 8.73e-05 ± 1.5e-05 | 0.000198 ± 3.2e-05 | 0.000278 ± 4e-05 | 1900 ± 380 | –
25 | C16U A48U C58G C70G | 4.36e-05 ± 1.5e-05 | 4e-05 ± 1.8e-05 | 7.73e-05 ± 3e-05 | – | – | – | –
26 | G29C C68U | 0.000269 ± 5.9e-05 | 4.12e-05 ± 5.7e-06 | 0.000112 ± 8.7e-06 | 0.000172 ± 1.2e-05 | 0.000368 ± 3.6e-05 | 959 ± 460 | 2.38e-05 ± 1.1e-05
27 | G29U G38A | < 1e-05 | < 1e-05 | < 1e-05 | < 1e-05 | – | – | –
28 | C16G U57A | 5.68e-05 ± 5.7e-06 | – | – | 3.99e-05 ± 1.7e-05 | 4.85e-05 ± 8.9e-06 | 1570 ± 780 | –
29 | C16U G51A C61G | 1.5e-05 ± 3.9e-06 | – | – | – | – | – | –
30 | C16U U55C C70U | 0.000581 ± 5.6e-05 | – | 0.000125 ± 2.7e-05 | 0.000261 ± 7.6e-05 | 0.000482 ± 9.6e-05 | 2450 ± 440 | –
31 | G29U U45C | 0.000348 ± 1.1e-05 | – | 7.89e-05 ± 3.4e-05 | 0.000204 ± 0.0001 | 0.000286 ± 4.9e-05 | 2130 ± 200 | –
32 | C16U G41A | 0.00129 ± 0.00064 | 0.000153 ± 3.2e-05 | 0.000403 ± 7.6e-05 | 0.0011 ± 0.00019 | – | – | 6.97e-05 ± 1.2e-05
33 | G29U U31A | 0.0048 ± 0.0017 | 0.000159 ± 3.6e-05 | 0.000947 ± 0.00018 | 0.0019 ± 0.00044 | 0.00369 ± 0.00052 | 3260 ± 1600 | 9.58e-05 ± 1.6e-05
